# Laboratory results taken from patent US20110262447A1.
# Target: wild-type p53 core domain (human) (UniProt P04637)
# Test: ELISA, plates coated with recombinant core domain
# Chain of wild-type p53 core domain (human) (P04637 94-312): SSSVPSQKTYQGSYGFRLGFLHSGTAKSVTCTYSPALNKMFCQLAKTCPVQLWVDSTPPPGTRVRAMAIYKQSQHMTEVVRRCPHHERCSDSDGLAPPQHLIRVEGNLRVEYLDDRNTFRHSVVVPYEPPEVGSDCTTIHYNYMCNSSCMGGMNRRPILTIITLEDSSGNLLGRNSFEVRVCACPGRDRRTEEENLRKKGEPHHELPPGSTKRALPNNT
substance,measurement,value
mAb 1620 (antibody),O.D.,1.2 O.D.
